Laboratory results from US12018066 (TRIAD NATIONAL SECURITY, dated 2024).
Like-named read-outs stand apart in the source and are kept apart here.

B1: E01 minibody (scFv-Fc) (Fc fusion)
chain: SYELTQPPSVSVAPGETARITCGGDNIGRRHVHWYQQKPGQAPVLVIYDDSDRPSGIPDRFSGSNSGNTATLTIGRVEAGDEADYYCQVWGSSNDPHVFGTGTKLTVLSGGSTITSNNVYYTKLSSSGTQVQLQQWGAGLLKPSETLSLKCAVYGGSFSGYYWGWIRQSTGKGLEWIGEINRSGSTNYNPSLKSRVTISVDTSKNQFSLKLSSVTAADTAVYYCARGGARYYYGSGSYRSTPRPYYFDYWGQGTLVTVSS
notes: also called E1
B2: S01 minibody (scFv-Fc) (Fc fusion)
chain: EIVMTQSPSSLSASVGDSVTITCQASQDISNYLNWYQQKPGKAPKLLIYDASNLETGVPSRFSGGGSGTDFTLTITSLQPEDIATYYCQQYDNFPPTFGPGTKVDIKSGGSTITSYNVYYTKLSSSDTQVQLVESGGGLVKPGGSLRLSCAASGFTVGSNYMSWVRQAPGKGLEWVSVIYSGGSTYYADSVKGRFTISRDNSKNTLYLQMNSLRAEDTAVYYCARGSSGAWYFDLWGRGTLVTVSS
notes: also called 501
B3: G07 IgG1 (antibody, V domains shown)
VH: QVQLVQSGAEVKKPGESLKISCKGSGYSFTSYWIGWVRQMPGKGLEWMGIIYPGDSDIRYSPSFQGQVTISADKSFSSAYLQWSSLKASDTAMYYCARLGATGAFDIWGQGTTVTVSS
VL: QSVLIQPPSASGTPGQRVTISCSGSNSNFGSNSVSWYQQRPGTAPKLLIEGNNQRPSGVPERFSGSKSGTSASLAISGLQSEDEAEYSCASWDDSLNAFVFGPGTKLTVL
B4: E01 IgG1 (antibody, V domains shown)
VH: QVQLQQWGAGLLKPSETLSLKCAVYGGSFSGYYWGWIRQSTGKGLEWIGEINRSGSTNYNPSLKSRVTISVDTSKNQFSLKLSSVTAADTAVYYCARGGARYYYGSGSYRSTPRPYYFDYWGQGTLVTVSS
VL: SYELTQPPSVSVAPGETARITCGGDNIGRRHVHWYQQKPGQAPVLVIYDDSDRPSGIPDRFSGSNSGNTATLTIGRVEAGDEADYYCQVWGSSNDPHVFGTGTKLTVL
notes: also called E1

Experiments:
[1] = biological target: T1, SARS-CoV-2 spike protein receptor binding domain (RBD2) (SARS-CoV-2, UniProt P0DTC2 319-537); assay: SPR
[2] = biological target: SARS-CoV spike protein receptor binding domain (RBD1) (SARS-CoV, UniProt P59594 306-527); assay: ELISA, minibodies (FIG. 6)
[3] = biological target: T1, SARS-CoV-2 spike protein receptor …; assay: SPR, immobilized antibody, RBD injected, 1:1 fit
[4] = biological target: T1, SARS-CoV-2 spike protein receptor …; assay: SPR, IgG
[5] = biological target: T1, SARS-CoV-2 spike protein receptor …
[6] = biological target: T1, SARS-CoV-2 spike protein receptor …; assay: SPR sandwich binning, ligand Anti-His
[7] = biological target: T1, SARS-CoV-2 spike protein receptor …; assay: SPR sandwich binning, ligand B04
[8] = biological target: T1, SARS-CoV-2 spike protein receptor …; assay: SPR sandwich binning, ligand E01
[9] = biological target: T1, SARS-CoV-2 spike protein receptor …; assay: SPR sandwich binning, ligand E08
[10] = biological target: T1, SARS-CoV-2 spike protein receptor …; assay: SPR sandwich binning, ligand F07
[11] = biological target: T1, SARS-CoV-2 spike protein receptor …; assay: SPR sandwich binning, ligand G07
[12] = biological target: T1, SARS-CoV-2 spike protein receptor …; assay: SPR sandwich binning, ligand H01
[13] = biological target: T1, SARS-CoV-2 spike protein receptor …; assay: SPR sandwich binning, ligand H05
[14] = biological target: T1, SARS-CoV-2 spike protein receptor …; assay: SPR sandwich binning, ligand NN54
[15] = biological target: T1, SARS-CoV-2 spike protein receptor …; assay: SPR sandwich binning, ligand CR3022
[16] = biological target: T2, human ACE2 receptor on HEK cells (Human ACE2 293 cell line) (human, UniProt Q9BYF1 18-805); assay: fluorescence microscopy, PE-labelled IgG on HEK-ACE2 cells without RBD2-sfGFP
T2 construct: whole, on cells; also called HEK-ACE2; ACE2 293 cells
T2 sequence (Q9BYF1 18-805): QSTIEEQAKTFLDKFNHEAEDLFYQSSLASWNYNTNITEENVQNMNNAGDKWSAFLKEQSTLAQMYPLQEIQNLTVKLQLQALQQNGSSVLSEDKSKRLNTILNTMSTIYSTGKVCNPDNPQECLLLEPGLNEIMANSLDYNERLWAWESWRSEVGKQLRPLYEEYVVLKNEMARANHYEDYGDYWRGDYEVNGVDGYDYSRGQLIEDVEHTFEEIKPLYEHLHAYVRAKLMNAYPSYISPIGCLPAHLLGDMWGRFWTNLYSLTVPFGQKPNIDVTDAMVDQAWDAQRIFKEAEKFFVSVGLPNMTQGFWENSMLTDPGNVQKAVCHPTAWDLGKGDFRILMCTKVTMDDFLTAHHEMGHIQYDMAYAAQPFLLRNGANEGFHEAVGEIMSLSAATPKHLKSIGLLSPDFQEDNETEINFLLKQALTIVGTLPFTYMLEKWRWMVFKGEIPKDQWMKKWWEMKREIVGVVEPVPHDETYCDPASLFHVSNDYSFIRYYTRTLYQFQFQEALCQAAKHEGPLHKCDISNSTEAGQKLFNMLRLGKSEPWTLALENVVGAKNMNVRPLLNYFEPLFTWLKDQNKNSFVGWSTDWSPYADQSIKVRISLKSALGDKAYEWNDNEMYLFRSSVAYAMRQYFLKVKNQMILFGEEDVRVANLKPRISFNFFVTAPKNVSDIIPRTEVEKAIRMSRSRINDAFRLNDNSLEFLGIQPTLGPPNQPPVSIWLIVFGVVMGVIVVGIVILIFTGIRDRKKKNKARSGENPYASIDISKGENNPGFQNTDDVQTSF

[17] = biological target: SARS-CoV-2 spike protein on whole SARS-CoV-2 virus (SARS-CoV-2, UniProt P0DTC2 14-1273); assay: cell-based or functional assay
[18] = biological target: T1, SARS-CoV-2 spike protein receptor …; assay: SPR sandwich binning, ligand S01

Row | Binder | Kd [1] [nM] | binding result [2] | Kd [3] [nM] | Kd [4] [nM] | Kd [5] [nM] | normalized analyte binding to RBD2 held by the immobilized ligand [6] | normalized analyte binding to RBD2 held by the immobilized ligand [7] | normalized analyte binding to RBD2 held by the immobilized ligand [8] | normalized analyte binding to RBD2 held by the immobilized ligand [9] | normalized analyte binding to RBD2 held by the immobilized ligand [10] | normalized analyte binding to RBD2 held by the immobilized ligand [11] | normalized analyte binding to RBD2 held by the immobilized ligand [12] | normalized analyte binding to RBD2 held by the immobilized ligand [13] | normalized analyte binding to RBD2 held by the immobilized ligand [14] | normalized analyte binding to RBD2 held by the immobilized ligand [15] | binding result [16] | NT50 (nM), half neutralization titer [17] [nM] | Nmax (%), neutralization maximum [17] [%] | normalized analyte binding to RBD2 held by the immobilized ligand [18]
1 | B1 | 21.5 | no binding | 21.5 |  |  |  |  |  |  |  |  |  |  |  |  |  |  |  | 
2 | B2 | 22700 | no binding |  |  |  |  |  |  |  |  |  |  |  |  |  |  |  |  | 
3 | B3 | 320 |  | 320 | 2000 | 246 | 0.92 | -0.03 | 1.57 | 1.86 | 0.08 | -0.05 | 0.94 | 1.03 | 1.73 | 1.56 | no binding (tested: 1 ug/mL) |  |  | 
4 | B4 | 90 |  | 90 | 48 | 90 | 2 | -0.09 | -0.07 | 2.33 | 0.62 | 2.43 | 2.35 | 2.18 | 2.78 | 2.39 |  | 6.4 | 104 | 0.03
